Patent publication US6482925
Numbering of substitutions follows the chain as printed. Names and notes keep the numbering of the source. Like-named read-outs stand apart in the source and are kept apart here.

B1: LAG-3 mutant R75E (receptor)
chain: LQPGAEVPVVWAQEGAPAQLPCSPTIPLQDLSLLRRAGVTWQHQPDSGPPAAAPGHPLAPGPHPAAPSSWGPRPERYTVLSVGPGGLRSGRLPLQPRVQLDERGRQRGDFSLWLRPARRADAGEYRAAVHLRDRALSCRLRLRLGQASMTASPPGSLRASDWVILNCSFSRPDRPASVHWFRNRGQGRVPVRESPHHHLAESFLFLPQVSPMDSGPWGCILTYRDGFNVSIMYNLTVLGLEPPTPLTVYAGAGSRVGLPCRLPAGVGTRSFLTAKWTPPGGGPDLLVTGDNGDFTLRLEDVSQAQAGTYTCHIHLQEQQLNATVTLAIITVTPKSFGSPGSLGKLLCEVTPVSGQERFVWSSLDTPSQRSFSGPWLEAQEAQLLSQPWQCQLYQGERLLGAAVYFTELSSPGAQRSGRAPGALPAGHLLLFLTLGVLSLLLLVTGAFGFHLWRRQWRPRRFSALEQGIHPRRLRAR
B2: LAG-3 mutant D225L (receptor)
chain: B1 chain with E75R, D225L
B3: LAG-3 mutant R73E (receptor)
chain: B1 chain with R73E, E75R
B4: LAG-3 mutant H56A (receptor)
chain: B1 chain with H56A, E75R
B5: LAG-3 mutant R107K (receptor)
chain: B1 chain with E75R, R107K
B6: LAG-3 mutant D30A (receptor)
chain: B1 chain with D30A, E75R
B7: LAG-3 mutant R115A (receptor)
chain: B1 chain with E75R, R115A
B8: LAG-3 mutant R75A (receptor)
chain: B1 chain with E75A
B9: LAG-3 mutant R88A (receptor)
chain: B1 chain with E75R, R88A
B10: wild-type LAG-3 (lymphocyte activation gene 3 protein) (receptor)
chain: B1 chain with E75R
B11: LAG-3 mutant H63F (receptor)
chain: B1 chain with H63F, E75R
B12: LAG-3 double mutant D133A/R134A (receptor)
chain: B1 chain with E75R, D133A, R134A
B13: LAG-3 mutant R76E (receptor)
chain: B1 chain with E75R, R76E
B14: LAG-3 mutant Q13A (receptor)
chain: B1 chain with Q13A, E75R
B15: LAG-3 mutant R103A (receptor)
chain: B1 chain with E75R, R103A
B16: LAG-3 mutant D109E (receptor)
chain: B1 chain with E75R, D109E
B17: LAG-3 mutant H63A (receptor)
chain: B1 chain with H63A, E75R
B18: LAG-3 mutant H56F (receptor)
chain: B1 chain with H56F, E75R
B19: LAG-3 mutant Y77F (receptor)
chain: B1 chain with E75R, Y77F

Legend:
[1] = target: MHC class II molecules on Daudi B cells; experiment: 51Cr Daudi cell adhesion; wild-type expression titrated by DNA quantity
[2] = target: MHC class II molecules on Daudi B cells; experiment: 51Cr Daudi cell adhesion to transfected Cos-7 cells; cpm relative to wild-type, background not subtracted
[3] = target: MHC class II molecules on Daudi B cells; experiment: 51Cr Daudi cell adhesion to transfected Cos-7 cells
[4] = target: MHC class II molecules on Daudi B cells; experiment: as above; remark: listed apart in the source

Row | Adhesion (relative to wild-type LAG-3) [2] | further results | Molecule
1 | 0.08 | reduction of bound cpm against wild-type LAG-3 at comparable expression [1]: 40% | LAG-3 deletion mutant (54/66), deletion of the tip of the external loop (from UniProt P18627 23-492) (receptor)
2 | 0.11 | reduction of bound cpm against wild-type LAG-3 at comparable expression [1]: 40% | LAG-3 deletion mutant (D2), deletion of domain D2 (from UniProt P18627 23-492) (receptor)
3 | 4.1 | fold increase of binding against wild-type LAG-3 [3]: > 3 fold | B1
4 | 0.89 | – | B2
5 | 3.25 | fold increase of binding against wild-type LAG-3 [3]: > 3 fold | B3
6 | 0.45 | fold reduction of binding against wild-type LAG-3 [4]: > 2 fold; reduction of bound cpm against wild-type LAG-3 at comparable expression [1]: 40%; fold reduction of binding against wild-type LAG-3 [3]: 2 fold | B4
7 | 1.02 | – | B5
8 | 0.41 | reduction of bound cpm against wild-type LAG-3 at comparable expression [1]: 40%; fold reduction of binding against wild-type LAG-3 [3]: 2 fold | B6
9 | 0.23 | reduction of bound cpm against wild-type LAG-3 at comparable expression [1]: 40% | B7
10 | 4.2 | fold increase of binding against wild-type LAG-3 [3]: > 3 fold | B8
11 | 0.18 | – | B9
12 | 1 | – | B10
13 | 0.91 | – | B11
14 | 0.78 | – | B12
15 | 2.95 | fold increase of binding against wild-type LAG-3 [3]: > 3 fold | B13
16 | 0.92 | – | B14
17 | 0.49 | fold reduction of binding against wild-type LAG-3 [3]: 2 fold | B15
18 | 0.18 | – | B16
19 | 0.83 | – | B17
20 | 0.89 | – | B18
21 | 0.05 | reduction of bound cpm against wild-type LAG-3 at comparable expression [1]: 40% | B19
